Assay results: the supplement of paper PMC10567573

B1: SNX8 (parent)
chain: VVLKLFLSFSGSDVQNKLKESAQC
B2: TOR1AIP2 (parent)
chain: HHVADAYTSSQKVSPIQIDGAGRT

Variants of: B1
Experiment: protein stability index of a GFP-peptide fusion (GPS, HEK-293T) (PSI 1-6); higher = more stable
Details: c terminus: a fixed tail appended
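Note: lentivirally expressed fusions sorted by FACS into six bins by GFP to DsRed ratio, PSI derived from sequencing read proportions per bin multiplied by bin number.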

Protein stability index, by site and new letter:
V1: F 2.81 | H 1.6 | I 3.61 | A 1.96 | E 2.47

Variants of: B2
Experiment: as above
Details: c terminus: a fixed tail appended

Protein stability index of substitutions, site by site:
P15: W 2.63 | K 3.33 | S 3.41 | I 2.77 | N 3.47 | M 3.25 | T 3.28 | E 3.82 | A 3.66 | D 3.81 | V 3.14 | Q 3.43 | H 3.08 | Y 2.55 | L 3.45 | C 3.66 | F 2.82 | R 3.26 | G 4.04
Y7: W 2.12 | R 4.43 | Q 4.5 | T 4.98 | S 4.87 | V 4.62
A21: Q 3.85 | F 3.18 | I 3.34 | T 3.85 | L 3.42 | H 3.7 | R 3.55 | W 2.67 | K 3.42 | S 3.67 | P 3.48 | Y 3.22 | V 3.34 | N 3.44 | E 3.32 | M 3.58 | C 3.48 | G 3.62 | D 4.16
G20: Q 3.7 | E 3.36 | L 2.78 | K 3.38 | H 3.31 | A 3.53 | W 2.33 | R 3.38 | N 3.58 | D 4.01 | Y 2.83 | V 3.33 | I 3.04 | P 3.28 | T 3.48 | F 3.06 | C 3.19 | S 3.23 | M 3.44
S10: Y 2.94 | V 2.9 | N 3.21 | H 3.17 | E 3.98 | R 2.64 | T 3.28 | I 2.72 | D 4.33 | W 2.37 | P 3.87 | G 3.81 | F 2.95 | A 3 | M 2.93 | K 3.46 | Q 3.24 | C 2.96 | L 3.07
T8: Y 3.45 | C 2.78 | Q 3.85 | W 2.86 | N 3.88 | E 4.38 | A 4.09 | K 3.49 | R 3.49 | F 3.27 | G 3.87 | S 3.69 | L 4.14 | P 4.38 | H 4.14 | D 4.66 | I 2.82 | M 3.89 | V 3.3
K12: Q 3.86 | G 3.48 | Y 3.02 | L 3.24 | V 3.47 | R 3.34 | P 4.16 | E 3.84 | C 3.06 | S 3.77 | I 3.13 | D 3.88 | T 3.59 | N 3.67 | M 3.4 | A 3.85 | F 2.47 | W 2.72 | H 3.54
Q11: D 4.26 | E 3.97 | G 3.66 | Y 2.96 | C 3.06 | R 2.95 | L 3.27 | M 3.15 | K 3.56 | F 2.65 | N 3.29 | W 2.21 | P 3.74 | T 3.6 | H 3 | S 3.44 | I 3 | A 3.23 | V 2.89
Q17: K 3.63 | N 3.64 | H 3.17 | Y 2.66 | I 3.05 | V 3.49 | E 3.65 | C 3.26 | L 3.57 | F 3.05 | S 3.69 | R 3.72 | M 2.99 | A 3.55 | P 3.93 | W 2.31 | D 3.67 | G 3.29 | T 3.41
G22: S 3.36 | V 3.4 | C 3.6 | H 3.47 | D 3.99 | I 3.26 | P 3.61 | R 3.19 | K 3.72 | L 2.92 | Y 2.82 | E 3.93 | N 3.25 | F 2.7 | A 3.58 | Q 3.5 | M 3.32 | T 3.09 | W 2.46
D19: Q 3.75 | V 3.28 | I 2.54 | Y 2.47 | A 3.01 | T 3.07 | F 2.77 | H 2.87 | N 3.34 | K 3.14 | S 3.2 | G 3.4 | W 1.94 | C 3.1 | E 3.43 | L 2.36 | P 3.06 | R 2.93 | M 2.7
I18: K 3.98 | P 4.15 | G 3.47 | A 4.03 | Q 3.75 | R 3.58 | V 3.76 | N 3.96 | D 4.28 | L 3.57 | E 3.73 | C 3.61 | W 3.26 | Y 2.97 | F 2.9 | M 3.84 | H 3.85 | T 3.87 | S 3.72
S9: H 3.77 | P 2.58 | L 3.28 | C 1.95 | N 3.54 | G 3.79 | R 3.75 | I 2.42 | E 3.11 | A 2.91 | F 2.9 | V 1.62 | D 4.04 | T 2.82 | Q 3.15 | W 2.65 | Y 3.78 | M 3.52 | K 4.43
S14: F 3.34 | Q 3.35 | E 4.13 | G 3.27 | R 3.26 | H 3.44 | P 3.25 | W 2.77 | I 2.94 | M 3.25 | K 3.45 | Y 2.71 | V 3.46 | T 3.22 | A 3.9 | N 4.01 | C 3.22 | L 3.42 | D 4.07
I16: S 3.78 | N 3.88 | R 3.94 | V 4.05 | K 4.04 | M 3.38 | D 4.46 | W 2.59 | Y 3.69 | L 3.6 | G 3.78 | P 4.09 | A 3.72 | H 3.45 | Q 3.69 | T 4.13 | E 4.51 | F 3.49 | C 3.31
R23: N 3.81 | C 3.68 | L 3.36 | W 3.1 | T 3.47 | D 4.11 | V 3.29 | K 3.28 | I 3.45 | Q 3.71 | M 3.26 | F 3.12 | G 3.68 | P 3.01 | E 3.91 | A 3.86 | S 3.83 | H 3.76 | Y 2.94
T24: K 3.9 | V 3.51 | A 3.36 | Q 3.3 | S 3.58 | E 4 | I 3 | F 2.81 | C 3.43 | G 3.85 | R 3.68 | N 3.97 | M 2.98 | L 3.09 | P 3.46 | D 4.18 | W 2.97 | Y 2.93 | H 3.38
V13: R 3.59 | H 3.76 | A 3.27 | E 3.96 | Y 3.43 | L 3.56 | C 2.92 | I 2.83 | G 3.7 | P 3.82 | Q 3.85 | T 3.8 | K 3.66 | D 4 | M 3.83 | F 3.21 | S 3.79 | N 4.32 | W 3.16
